Assay [1] addresses HLA-A*0201 (recombinant heavy chain with beta-2 microglobulin) (human). The assay is described as follows: ELISA-based HLA refolding assay. The procedure: Stable HLA/peptide complexes consist of three molecules: HLA heavy chain, beta-2 microglobulin (b2m) and the peptidic ligand. […] The availability of these molecules is used in an ELISA-based assay to measure the affinity of interaction between peptide and HLA class I molecule (Sylvester-Hvid et al., 2002).
The amount of de novo-folded HLA/peptide complexes was determined by a quantitative ELISA. Dissociation constants (KD values) were calculated using a standard curve recorded from dilutions of a calibrant HLA/peptide complex.

Assay [2] has as its target T1, HLA-A*0205 (human).
T1 construct: whole, on cells; Native HLA precipitated from tumor tissue
The assay can be described thus: peptide eluted from HLA precipitated from glioblastoma tissue, identified by ESI-LCMS.

Regarding FLLPDTDGL [PTP-004], the binding result in assay [1] is recorded as “binds”. Still for that read-out and setting: in the case of FLYKVILSL [PTP-002] it was “binds”.

With SLWAGVVVL [CHI-001], the binding result in assay [1] is “binds”. For KVFAGIPTV [PTP-005], in assay [1], the binding result was “binds”. In the case of ALTTLMHQL (9-mer from PTPRZ1) [PTP-001], the binding result in assay [1] and in assay [2] was “binds” in each case.

As to AIIDGVESV [PTP-003], the binding result in assay [1] was “binds”.

The record behind these values is US20090123489A1 (IMMATICS BIOTECHNOLOGIES, published 2009).
